Measurements from patent US20260210971A1 (Pfizer, published 2026).
Values belong to the binder of their own block, whether it stands above or below them.

Columns and labels:
[1] = target: T1, recombinant soluble human TL1A (human, UniProt O95150 71-251); assay: cell-based or functional assay
T1 sequence: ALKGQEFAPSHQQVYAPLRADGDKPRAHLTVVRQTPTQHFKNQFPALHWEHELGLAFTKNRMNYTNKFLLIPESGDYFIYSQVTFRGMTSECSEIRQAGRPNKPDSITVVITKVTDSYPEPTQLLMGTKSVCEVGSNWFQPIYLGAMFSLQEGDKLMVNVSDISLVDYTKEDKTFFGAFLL

[2] = target: T2, recombinant soluble murine TL1A (mouse, UniProt Q5UBV8 75-252); assay: SPR, IgG captured on anti-hIgG, TL1A injected;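 further: biacore measurement on a carboxymethylated dextran chip, double-referenced against a control surface and buffer, rates fitted to a one-to-one binding model, KD from koff over kon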
T2 construct: also called murine rsTL1A; mouse TL1A
T2 chain: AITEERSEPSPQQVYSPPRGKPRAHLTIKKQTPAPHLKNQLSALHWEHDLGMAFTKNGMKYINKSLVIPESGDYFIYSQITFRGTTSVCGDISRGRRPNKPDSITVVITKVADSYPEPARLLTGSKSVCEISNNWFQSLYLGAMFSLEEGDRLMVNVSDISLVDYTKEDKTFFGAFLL
Text: (§1) The antibodies were captured via directly immobilized anti-human IgG (GE Healthcare) onto a carboxymethylated dextran sensor chip surface (CM5) using a Biacore T100 or T200 instrument. Anti-human IgG was immobilized through amine coupling to densities of approximately 4,000-13,000 response units (RU). […] At the end of each cycle, the entire anti-hIgG surface was regenerated by a 30-second pulse of 3M MgCl₂ followed by two consecutive 15-second pulses of PBS-NET. […] All injections were performed at 25° C. at a collection rate of 10 Hz. All sensorgrams were double referenced by using both a control surface and buffer injections. Rate constants were determined by fitting the data to a 1:1 model in Biacore T100, T200 evaluation software v1.0, or BIAevaluation software v4.1.1 and the equation KD=Kd/kₐ.
(§2) At the highest cytokine concentrations, the dissociation phase was sometimes extended to 60 minutes to achieve at least a 5% decrease in binding signal.

[3] = target: T3, recombinant soluble cynomolgus monkey TL1A (cynomolgus monkey, UniProt O95150 72-251 (human entry)); assay: SPR, IgG captured on anti-hIgG, TL1A injected;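 further: biacore surface plasmon resonance on a dextran sensor chip, double-referenced sensorgrams fitted to a one-to-one binding model, KD taken as dissociation over association rate constant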
T3 construct: also called cyno rsTL1A; cyno TL1A
T3 chain: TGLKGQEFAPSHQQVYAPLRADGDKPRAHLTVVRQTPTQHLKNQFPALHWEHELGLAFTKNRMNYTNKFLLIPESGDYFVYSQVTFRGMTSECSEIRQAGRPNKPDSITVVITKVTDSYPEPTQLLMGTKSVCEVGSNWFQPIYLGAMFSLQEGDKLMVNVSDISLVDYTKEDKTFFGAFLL
Text: as §1, §2

[4] = target: T1, recombinant soluble human TL1A; assay: SPR, IgG captured on anti-hIgG, TL1A injected; off rate too slow to measure;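 on koff: biacore T-200 with CM5 chip, anti-human IgG surface capturing under 30 RU of IgG, reference flow cell subtracted, running buffer PBS with 300 mM NaCl, EDTA and Tween20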;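 on kon: biacore T-200 with CM5 chip, anti-human IgG surface capturing under 30 RU of IgG, reference flow cell subtracted, running buffer PBS with 300 mM NaCl, EDTA and Tween20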
[5] = target: T1, recombinant soluble human TL1A; assay: KinExA, equilibrium in solution
Experimental: This assay involves pre-incubating antibody: antigen mixtures in solution long enough to reach equilibrium before measuring the level of unbound antibody using a solid phase component. […] Beads were blocked for 1 hour with PBS plus 10 mg/ml bovine serum albumin (bovine serum albumin, Sigma) at room temperature before being diluted up to a total of 27 ml in PBS. […] For each titration series, a buffer sample and a sample of antibody alone were included. Each antibody: TL1A mixture was tumbled at room temperature for at least six hours to reach equilibrium and then each mixture was injected over the solid phase of TL1A-coated beads in the instrument flow cell. […] Beads were replenished between each sample. Binding signals of detected free antibody were converted to percentage of free, unbound antibody as measured by the antibody only sample and plotted versus each concentration of TL1A. For each antibody, the KD and ABC controlled curves were fit simultaneously using n-Curve Analysis software v3.1.4 to fit the curves to the ‘affinity, unknown ligand’ model and measure an equilibrium KD.
Solution-based kinetic exclusion assays (KinExA) were carried out as an orthogonal technique to measure equilibrium KD values.

[6] = target: T1, recombinant soluble human TL1A; assay: SPR, IgG captured on anti-hIgG, TL1A injected;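 further: biacore T-200 with CM5 chip, anti-human IgG surface capturing under 30 RU of IgG, reference flow cell subtracted, running buffer PBS with 300 mM NaCl, EDTA and Tween20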
Experimental: Biacore analysis was performed using T-200 biosensor, series S CM5 chips and approximately 4000 RU (response units) of an anti-human IgG (GE Healthcare), immobilized in 10 mM sodium acetate immobilization buffer at pH 5.0. Assay conditions were established to minimize the influence of mass transfer, avidity, and rebinding events, as described below. A blank immobilization was carried out on a separate flow cell for reference subtraction. The purified IgGs were diluted in running buffer (PBS, 300 mM sodium chloride, 3.2 mM ethylenediaminetetraacetic acid, 0.01% Tween20) and low levels (<30 RU) captured using a flow rate of 100 μl/min for 2 min, to reduce possible rebinding by the trimeric TL1A. […] Reference-subtracted sensorgrams for each concentration were analyzed using Biacore T-200 evaluation software (v1.0).

Caspase Assay, average IC50 [1]: 0.0962 nM
NFkB Assay, average IC50 [1]: 0.189 nM
Kd [2]: ~1.53 nM
koff [2]: 0.00032 s⁻¹
kon [2]: 210000 M⁻¹ s⁻¹
t1/2 [2]: 0.602 h
Kd [3]: 0.144 nM
koff [3]: 5.4e-05 s⁻¹
kon [3]: 380000 M⁻¹ s⁻¹
t1/2 [3]: 3.59 h
Kd [4]: < 0.1 nM
Kd [5]: 0.00252 nM
B1: 1D1 1.28 (antibody, human IgG1, kappa, V domains shown)
VH: QVQLVQSGAEVKKPGASVKVSCKASGYDFTYYGISWVRQAPGQGLEWMGWISTYNGNKHYARMLQGRVTMTTDTSTRTAYMELRSLRSDDTAVYYCARENYYGSGSYRGGMDVWGQGTTVTVSS
VL: EIVLTQSPATLSLSPGERATLSCRASQSVSSYLAWYQQKPGQAPRLLIYDASNRATGIPARFSGSGSGTDFTLTISSLEPEDFAVYYCQQRSNWPWTFGQGTKVEIKR
notes: Expressed as IgG1; also called 1D1 1.28-hIgG1-3m

Kd [6]: 0.662 nM
koff [6]: 0.000473 s⁻¹
kon [6]: 717000 M⁻¹ s⁻¹
B2: 1D1 D18 (antibody, V domains shown)
VH: QVQLVQSGAEVKKPGASVKVSCKASGYSFTYYGISWVRQAPGQGLEWMGWISTYNGNTHYARMLQGRVTMTTDTSTRTAYMELRSLRSDDTAVYYCARENYYGSGSYRGGMDVWGQGTTVTVSS
VL: EIVLTQSPATLSLSPGERATLSCRASQSVSSYLAWYQQKPGQAPRLLIYDASNRATGIPARFSGSGSGTDFTLTISSLEPEDFAVYYCQQRSNWPWTFGQGTKVEIKR
notes: IgG with triple mutant Fc as for 1D1 D37

Kd [5]: 3 nM
B3: 1D1 Fab (Fab, V domains shown)
VH: QVQLVQSGAEVKKPGASVKVSCKASGYSFTYYGISWVRQAPGQGLEWMGWISTYNGNTNYARMLQGRVTMTTDTSTRTAYMELRSLRSDDTAVYYCARENYYGSGSYRGGMDVWGQGTTVTVSS
VL: EIVLTQSPATLSLSPGERATLSCRASQSVSSYLAWYQQKPGQAPRLLIYDASNRATGIPARFSGSGSGTDFTLTISSLEPEDFAVYYCQQRSNWPWTFGQGTKVEIKR
notes: Made from 1D1 IgG by papain; also called Fab of 1D1

Caspase Assay, average IC50 [1]: 0.085 nM
NFkB Assay, average IC50 [1]: 0.281 nM
Kd [2]: 2.86 nM
koff [2]: 0.0007 s⁻¹
kon [2]: 260000 M⁻¹ s⁻¹
t1/2 [2]: 0.263 h
Kd [3]: 0.092 nM
koff [3]: 4.5e-05 s⁻¹
kon [3]: 490000 M⁻¹ s⁻¹
t1/2 [3]: 4.32 h
Kd [4]: < 0.1 nM
Kd [5]: 0.0194 nM
B4: 1D1 1.29 (antibody, human IgG1, kappa, V domains shown)
VH: QVQLVQSGAEVKKPGASVKVSCKASGYDFTYYGISWVRQAPGQGLEWMGWISTYNGGTHYARMLQGRVTMTTDTSTRTAYMELRSLRSDDTAVYYCARENYYGSGSYRGGMDVWGQGTTVTVSS
VL: EIVLTQSPATLSLSPGERATLSCRASQSVSSYLAWYQQKPGQAPRLLIYDASNRATGIPARFSGSGSGTDFTLTISSLEPEDFAVYYCQQRSNWPWTFGQGTKVEIKR
notes: Expressed as IgG1

Kd [6]: 0.518 nM
koff [6]: 0.00042 s⁻¹
kon [6]: 822000 M⁻¹ s⁻¹
B5: 1D1 D31 (antibody, V domains shown)
VH: QVQLVQSGAEVKKPGASVKVSCKASGYSFTYYGISWVRQAPGQGLEWMGWISTYNGNKHYARMLQGRVTMTTDTSTRTAYMELRSLRSDDTAVYYCARENYYGSGSYRGGMDVWGQGTTVTVSS
VL: EIVLTQSPATLSLSPGERATLSCRASQSVSSYLAWYQQKPGQAPRLLIYDASNRATGIPARFSGSGSGTDFTLTISSLEPEDFAVYYCQQRSNWPWTFGQGTKVEIKR
notes: as for B2

Kd [6]: 0.625 nM
koff [6]: 0.000478 s⁻¹
kon [6]: 776000 M⁻¹ s⁻¹
B6: 1D1 D5 (antibody, V domains shown)
VH: QVQLVQSGAEVKKPGASVKVSCKASGYSFTYYGISWVRQAPGQGLEWMGWISTYNGNTNYARMLQGRVTMTTDTSTRTAYMELRSLRSDDTAVYYCARENYYGSGAFRGGMDGWGQGTTVTVSS
VL: EIVLTQSPATLSLSPGERATLSCRASQSVSSYLAWYQQKPGQAPRLLIYDASNRATGIPARFSGSGSGTDFTLTISSLEPEDFAVYYCQQRSNWPWTFGQGTKVEIKR
notes: as for B2

Caspase Assay, average IC50 [1]: 0.146 nM
NFkB Assay, average IC50 [1]: 0.2 nM
Kd [2]: 1.91 nM
koff [2]: 0.00029 s⁻¹
kon [2]: 160000 M⁻¹ s⁻¹
t1/2 [2]: 0.651 h
Kd [3]: 0.107 nM
koff [3]: 3.7e-05 s⁻¹
kon [3]: 360000 M⁻¹ s⁻¹
t1/2 [3]: 5.14 h
Kd [4]: < 0.1 nM
Kd [5]: 0.0106 nM
B7: 1D1 1.33 (antibody, human IgG1, kappa, V domains shown)
VH: QVQLVQSGAEVKKPGASVKVSCKASGYDFTYYGISWVRQAPGQGLEWMGWISTYNGVTHYARMLQGRVTMTTDTSTRTAYMELRSLRSDDTAVYYCARENYYGSGAYRGGMDAWGQGTTVTVSS
VL: EIVLTQSPATLSLSPGERATLSCRASQSVSSYLAWYQQKPGQAPRLLIYDASNRATGIPARFSGSGSGTDFTLTISSLEPEDFAVYYCQQRSNWPWTFGQGTKVEIKR
notes: Expressed as IgG1; also called 1D1 1.33-hIgG1-3m

Kd [6]: 0.709 nM
koff [6]: 0.00052 s⁻¹
kon [6]: 745000 M⁻¹ s⁻¹
B8: 1D1 D21 (antibody, V domains shown)
VH: QVQLVQSGAEVKKPGASVKVSCKASGYSFTYYGISWVRQAPGQGLEWMGWISTYNGKTHYARMLQGRVTMTTDTSTRTAYMELRSLRSDDTAVYYCARENYYGSGSYRGGMDVWGQGTTVTVSS
VL: EIVLTQSPATLSLSPGERATLSCRASQSVSSYLAWYQQKPGQAPRLLIYDASNRATGIPARFSGSGSGTDFTLTISSLEPEDFAVYYCQQRSNWPWTFGQGTKVEIKR
notes: as for B2

Kd [6]: 0.924 nM
koff [6]: 0.000896 s⁻¹
kon [6]: 977000 M⁻¹ s⁻¹
B9: 1D1 DH8 (antibody, V domains shown)
VH: QVQLVQSGAEVKKPGASVKVSCKASGYSFTYYGISWVRQAPGQGLEWMGWISAYNGNTHYARMLQGRVTMTTDTSTRTAYMELRSLRSDDTAVYYCARENYYGSGSYRGGMDVWGQGTTVTVSS
VL: EIVLTQSPATLSLSPGERATLSCRASQSVSSYLAWYQQKPGQAPRLLIYDASNRATGIPARFSGSGSGTDFTLTISSLEPEDFAVYYCQQRSNWPWTFGQGTKVEIKR
notes: as for B2

Kd [6]: 0.705 nM
koff [6]: 0.000712 s⁻¹
kon [6]: 1.01e+06 M⁻¹ s⁻¹
B10: 1D1 D29 (antibody, V domains shown)
VH: QVQLVQSGAEVKKPGASVKVSCKASGYSFTYYGISWVRQAPGQGLEWMGWISSYNGNTHYARMLQGRVTMTTDTSTRTAYMELRSLRSDDTAVYYCARENYYGSGSYRGGMDVWGQGTTVTVSS
VL: EIVLTQSPATLSLSPGERATLSCRASQSVSSYLAWYQQKPGQAPRLLIYDASNRATGIPARFSGSGSGTDFTLTISSLEPEDFAVYYCQQRSNWPWTFGQGTKVEIKR
notes: as for B2

Kd [6]: 0.453 nM
koff [6]: 0.000387 s⁻¹
kon [6]: 868000 M⁻¹ s⁻¹
B11: 1D1 D25 (antibody, V domains shown)
VH: QVQLVQSGAEVKKPGASVKVSCKASGYSFTYYGISWVRQAPGQGLEWMGWISTYNGATHYARMLQGRVTMTTDTSTRTAYMELRSLRSDDTAVYYCARENYYGSGSYRGGMDVWGQGTTVTVSS
VL: EIVLTQSPATLSLSPGERATLSCRASQSVSSYLAWYQQKPGQAPRLLIYDASNRATGIPARFSGSGSGTDFTLTISSLEPEDFAVYYCQQRSNWPWTFGQGTKVEIKR
notes: as for B2

Kd [6]: 0.527 nM
koff [6]: 0.000568 s⁻¹
kon [6]: 1.09e+06 M⁻¹ s⁻¹
B12: 1D1 D28 (antibody, V domains shown)
VH: QVQLVQSGAEVKKPGASVKVSCKASGYSFTYYGISWVRQAPGQGLEWMGWISTYNGKTHYARMHQGRVTMTTDTSTRTAYMELRSLRSDDTAVYYCARENYYGSGSYRGGMDVWGQGTTVTVSS
VL: EIVLTQSPATLSLSPGERATLSCRASQSVSSYLAWYQQKPGQAPRLLIYDASNRATGIPARFSGSGSGTDFTLTISSLEPEDFAVYYCQQRSNWPWTFGQGTKVEIKR
notes: as for B2

Kd [6]: 0.84 nM
koff [6]: 0.000866 s⁻¹
kon [6]: 1.04e+06 M⁻¹ s⁻¹
B13: 1D1 DH9 (antibody, V domains shown)
VH: QVQLVQSGAEVKKPGASVKVSCKASGYSFTYYGISWVRQAPGQGLEWMGWISPYNGKTHYARMLQGRVTMTTDTSTRTAYMELRSLRSDDTAVYYCARENYYGSGSYRGGMDVWGQGTTVTVSS
VL: EIVLTQSPATLSLSPGERATLSCRASQSVSSYLAWYQQKPGQAPRLLIYDASNRATGIPARFSGSGSGTDFTLTISSLEPEDFAVYYCQQRSNWPWTFGQGTKVEIKR
notes: as for B2

Kd [6]: 0.589 nM
koff [6]: 0.0005 s⁻¹
kon [6]: 853000 M⁻¹ s⁻¹
B14: 1D1 DH10 (antibody, V domains shown)
VH: QVQLVQSGAEVKKPGASVKVSCKASGYSFTYYGISWVRQAPGQGLEWMGWISTYNGNTNYARMLQGRVTMTTDTSTRTAYMELRSLRSDDTAVYYCARENYYGSGAYRGGMDVWGQGTTVTVSS
VL: EIVLTQSPATLSLSPGERATLSCRASQSVSSYLAWYQQKPGQAPRLLIYDASNRATGIPARFSGSGSGTDFTLTISSLEPEDFAVYYCQQRSNWPWTFGQGTKVEIKR
notes: as for B2
